In the DeepSol protein solubility set:

Test: soluble on expression in E. coli; label from the status in PepcDB or PDB records

Sequence	soluble on expression in E. coli
MESKHKLSINQWALEDRPREKMMEKGAAALSDAELLAILIGSGNTEESAVELMRRLLLSCDNNLNSLAKWEVCDYSRFKGMGPAKSITVMAALELGKRRKLQNIQERPRISCSRDIYDIFQPVMCDLEQEEFWVLLLNQATRLIDKVRISTGGIDGTYTDVRTILREALLQRATQIAVVHNHPSGNIQPSQPDRTLTEHIRRAADTMNIRLIDHVIVCEDKFYSFADEGLL	not soluble
MSLKLHHLNDSRSFRILWLLEEIGQPYEIIRYQRDKETHLAPETLKDIHPLGKSPVIELDGKIIAESGSITEVLIKEFAPHLAPNEKSPEYIDYLQWIHFSESSAMLPLLLKIFNEFETRSGTDLKFLKNYAEIEFNKVFSYLNNHLNNKKFLVEDRLTGADFMLGFVVKGALNLLKSSGAFPHIESYITNIENQISYKRALDIDANEGHHHHHH	soluble
MGSDKIHHHHHHMTEDIIKKYRGKLPESILEQWHLFGFAGYLNGLYWITNPDDYAEVIYDWLEETPLPDDDVYHVLARSAFGELLIWGERNYGRYYIKTMEGILHDNGEQLESAEFYGSDFFFLPKKNYLDYTDKNGNKLFDRAVKKLGVLKADEMYAFEPALALGGEESLQHLTKVNLPVHMKLLKQVTPLRLRTFEDLTAALYGTSYSVDDLTSGQDAESQYQESVQAGEVCPRTGYWTTPAQPNTRHYCKKGEVLPEIKEQDWGEVYWYWDGEN	not soluble
MADGQVAELLLRRLEASDGGLDSAELAAELGMEHQAVVGAVKSLQALGEVIEAELRSTKHWELTAEGEEIAREGSHEARVFRSIPPEGLAQSELMRLPSGKVGFSKAMSNKWIRVDKSAADGPRVFRVVDSMEDEVQRRLQLVRGGQAEKLGEKERSELRKRKLLAEVTLKTYWVSKGSAFSTSISKQETELSPEMISSGSWRDRPFKPYNFLAHGVLPDSGHLHPLLKVRSQFRQIFLEMGFTEMPTDNFIESSFWNFDALFQPQQHPARDQHDTFFLRDPAEALQLPMDYVQRVKRTHSQGGYGSQGYKYNWKLDEARKNLLRTHTTSASARALYRLAQKKPFTPVKYFSIDRVFRNETLDATHLAEFHQIEGVVADHGLTLGHLMGVLREFFTKLGITQLRFKPAYNPYTEPSMEVFSYHQGLKKWVEVGNSGVFRPEMLLPMGLPENVSVIAWGLSLERPTMIKYGINNIRELVGHKVNLQMVYDSPLCRLDAEPRPPPTQEAA	soluble
MANRIQEIALSDKNLGSKIKAVYKTERDIYVNGAPVRGRVFTASSEKQRDFEIFVPHLRNSQMLNGREEVKLIDPVARINVKRNNIGNSRSIDMVVYAKRLEVVGGNK	not soluble
MGHHHHHHSHMTSEQIPNRVLLFDGVCNLCNGAVQFIIKRDPDGLISFTSLQSETGQSLLKKSGLPTDRFDSFVFIEDGQVYTKSTAAIKVFRHLRGPWRLFVLFFAVPKPVRDMVYSFIAKNRYKWFGKKNECMLPSPSIKKRFLP	not soluble
MAHHHHHHMTFEFGEECNNLARAAHQTKNYGDAISLYDRALTMRREKYGPIHKKCAATLHNIGRVFIDMKEYGAAENAFTEAAAIYEQVEGDKSLEYAESLELLALCYTHLKFLDEAEKAFKDSIRIFRDQCYNYGNNSWLPDDKTPPAEPNKHPLSSAAHALADCAALFLFRRQEHQAVAFLEEALEIRRFLYSRHVKFRPMIAQTLNKLCELKKSLDDAVGAEMCINECLEICIETLGRDHPATAQATSSKAGLLAAKKQFRDALRLYEESTRTYAMALGKDAPLFGQELMKLGRCQELCNDVVNAEKTFRRGVEIITNGFGPNSLQLAEANTFYGSLLARRLDIDQAVGMFRDAIRIRKSVDKHDPQLAYLYQKIGDAYAMRREPHAEAYFLLAVDAFKQNATIEPLQRTYMTDVLDDLGLFYLDFQHYEKAEKCFKEALDTRIEMLGENHATVAYSYSNFALLYLQRQDYANCEKMAEAALDIYSKTARSNVLAQADVHTTLGQCYHQQNQFAKALEMHEKALNVRRTRGDTTETAVAESLNQIARVYITMKRYGKAYRHVKEARRLVWQFNVEITQPLRNEIVKTEQMIPPMEEWTNEERAEAQVMIGDGSSAGNGSAATTATGA	not soluble
MYQETKQFYHLWLLAVQERDEAREHLKQSLVELSRLQECFNTILLSEDQQIPHYSYSETTDETPDHQKLYSYNNFSNESPSRFSSASSIDLVSNSTVYSSPETYDSDCYSLRTLQMGFAFEEKKDFETLVLENIGLGRMLPENGKFQQAIIEAGSLVDSLFITGPIPKWRNPPVQMLSQRPLLSHSIGKWNYGGQGIINRSFSGKMPRLSLMP	soluble
LPLCFADASGTLRYVNDRFTRLFGYAPEDIPTQEEWWSRVCTDGRCRGETADAWQASVQRGPNGASDIEPAEFRVACKNGDIRLVEVSGITIEGTVLATFIDI	not soluble
SQPNSSIIKYPNKVRNLPGIAASLRTVGYSTHHLYGGDADFTNVRSYLYGTGYDEVTDVSSFPFKTRLSKWGTPDHISFPRLLDDCRRLEKEKKPYFYSFLTLSSHEPFDVPSQHHPDPYLNSVFYTDSCFGDYIRGMQQSPQWKNTLIIAVSDHGYPYPADQAMPDQPGRYGIVMLWAGGAILRPIRFEEVVSQSDLPATLLAQLGLTHDEFVFSKDVFRRNSPHFAYFSFPGLVGLATSEGTTIYDFAGDKIVYGHEAPLADQRAIAAKVMLQSVMKDMLSR	not soluble
MGSDKIHHHHHHMNSLQFPRHGDKENSAFFEEYLVKLLEERDAMGLTAMVHEIDALMITVDPGHSVKYVAELCFMTSYHYLVTLESESHWTHVLRIDLDSPDLLVREVKDPNLRGIFRSLNEIYPVGARKPNSRYMGEIIRVNNLHDVVKLQQEREFRFFTQDEVRKLELPGNLAVSKPSPYTHNIVAYLERKPDEMRVYSLGVSRVDAELQMAYEAAKRLQEKLNFADLLLPIDHLATRVYSQNREVAILEYLSWSSYYFWGAYNIFDQNSSTNVTKSAHGLPESKSPAKVFTANNTPYFVNHLEKLPSPTETFVRNYGPRLHHIAVAVRDGERDGLEHIEFAVNAIASQGKGFLLDVIGSREEGLKQIFSNASEHSSLIVEYVQRFGDFQGFFTKENVAVLTEAAGREEGVKSGASLG	not soluble
MTLTKGSFTYSSGEEYRGEWKEGRRHGFGQLVFADGGTYLGHFENGLFNGFGVLTFSDGSRYEGEFSQGKFNGVGVFIRYDNMTFEGEFKNGRVDGFGLLTFPDGSHGIPRNEGLFENNKLLRREKCSAVVQRAQSASKSARNLTA	soluble
MLDKQTMVTAHNALPGRTTAMSIDDTHFVNGSSLTAAPQSGQQQILIGMGCFWGAERLFWQLDGVISTSVGYSGGFTPNPTYEEVCSGKTGHTEVVRVIFDPERLPLTELLRAFWERHDPTQGMRQGNDRGTQYRSAIYTFSEDQREIAEASKAAYQALLTAQHRPSITTEILPAGAYYFAETYHQQYLAKNPNGYCGLGGTGVCFPPHSTL	not soluble
MGSDKIHHHHHHMNRSTRSHKAIVIFSGGQDSTTCLFQAIQEFKRENVEVITFQYGQRHSIELEKAAWIAQNLGIKQTVIDTSVIKAITTNALITEATIKQDGDKPNTFVDGRNALFLLYTAIYAKGQGIQTIFTGVCETDFSGYPDCRDIFIKSMNVTLNLAMDYNFNIRTPLMYLTKKQTWALADQLGAFEYVREHTHTCYLGVEGGCHTCPSCLLREKGLNEYLAEKSGEKNV	not soluble
MTKRNTPQRRHNILALLNEQGEVSVDDLARRFETSEVTIRKDLAALETNGLLLRRYGGAIPLPHELISESSQPVSRYKKAIARAAVSRIREHARIIVDSGSTTAALIPELGQQPGLVVMTNSLHVARALTDLEHEPVLLMTGGTWDPHSESFQGQVAEQVLRSYDFDQLFIGADGIDLIRGTTTFNELLGLSRVMAEVAREVVVMVEADKVGRKIPNLELPWSSIHTLITDDRLPVEARDQIQARGINLICAAVSLEHHHHHH	not soluble
IMIRTDRYGVITYANEKFCEILKYDKEELIGQRFDILNSHYHAQRFFDIMWETISTGNVWNDEIRNKAKDGSYVWLDTTIIPVLNDEHVPNQYIAIYTDLS	not soluble
DKEVVVLGSGDPMFHGIGSTLHRLLPNHSMTVIPQPSSASLACARLGWALDTTSVYSLVTHPIAHLTLAIEQGDRFLVLGRNHESPHEICEHLISLGQSTAEVTVLSDIGSVSETITSGAATDYPSNDSALNVIAIRPLAATRSRVPGLPDSEYVTDGQLTKQHVRALAISALAPKPHETLWDIGGGSGSIAIEWLRSTPQTTAVCFEISEERRERILSNAINLGVSDRIAVQQGAPRAFDDVPDNPD	not soluble
